Drawing on patent US20240173426A1 (Regeneron, published 2024), this text covers Kd, t½ and EC50 for four molecules.

The term Kd denotes the constant that tells how readily two partners part at equilibrium. A word on the t½: it is the time needed for the level to fall by half in the phase considered. Higher therefore signals slow decline. Usually EC50 stands for the concentration at which the effect is half-maximal. A lower EC50 goes with greater potency.

B4: human FGFR3b expressed with a C-terminal murine Fc tag (hFGFR3b.mFc) (Fc fusion)
chain: ESLGTEQRVVGRAAEVPGPEPGQQEQLVFGSGDAVELSCPPPGGGPMGPTVWVKDGTGLVPSERVLVGPQRLQVLNASHEDSGAYSCRQRLTQRVLCHFSVRVTDAPSSGDDEDGEDEAEDTGVDTGAPYWTRPERMDKKLLAVPAANTVRFRCPAAGNPTPSISWLKNGREFRGEHRIGGIKLRHQQWSLVMESVVPSDRGNYTCVVENKFGSIRQTYTLDVLERSPHRPILQAGLPANQTAVLGSDVEFHCKVYSDAQPHIQWLKHVEVNGSKVGPDGTPYVTVLKSWISESVEADVRLRLANVSERDGGEYLCRATNFIGVAEKAFWLSVHGPRAAEEELVEADEAGSVYAGEPRGPTIKPCPPCKCPAPNLLGGPSVFIFPPKIKDVLMISLSPIVTCVVVDVSEDDPDVQISWFVNNVEVHTAQTQTHREDYNSTLRVVSALPIQHQDWMSGKEFKCKVNNKDLPAPIERTISKPKGSVRAPQVYVLPPPEEEMTKKQVTLTCMVTDFMPEDIYVEWTNNGKTELNYKNTEPVLDSDGSYFMYSKLRVEKKNWVERNSYSCSVVHEGLHNHHTTKSFSRTPGK
notes: called dimeric; also called REGN3153; dimeric human FGFR3b

For test [1], the target named is T1, human FGFR3b expressed with a C-terminal myc-myc-hexahistidine tag (hFGFR3b.mmH) (human).
T1 construct: monomeric; also called REGN3152; monomeric human FGFR3b
T1 chain: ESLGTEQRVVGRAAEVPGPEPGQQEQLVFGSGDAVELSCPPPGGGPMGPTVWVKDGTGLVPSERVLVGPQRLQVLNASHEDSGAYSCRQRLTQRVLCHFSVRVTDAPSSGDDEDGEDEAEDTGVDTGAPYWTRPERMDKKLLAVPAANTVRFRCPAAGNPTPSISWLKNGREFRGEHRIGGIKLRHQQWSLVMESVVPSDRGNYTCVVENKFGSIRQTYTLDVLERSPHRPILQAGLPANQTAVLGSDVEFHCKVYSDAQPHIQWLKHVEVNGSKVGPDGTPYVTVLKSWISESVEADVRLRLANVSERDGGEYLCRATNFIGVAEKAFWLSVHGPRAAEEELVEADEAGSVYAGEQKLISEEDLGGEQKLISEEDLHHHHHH
In words: SPR (Biacore), recombinant human FGFR3 protein.

Test [2] addresses B4. In words: SPR (Biacore), captured mAb, 25 C. As to the method:
(§1) The CM5 Biacore sensor surface was derivatized by amine coupling with a monoclonal mouse anti-human Fc monoclonal antibody (REGN2567). All Biacore binding studies were performed in a buffer composed of 0.01M HEPES pH 7.4, 0.15 M NaCl, 3 mM EDTA, 0.05% v/v Surfactant P20 (HBS-EP running buffer). […] Antibody-reagent association was monitored for 5 minutes while dissociation in HBS-EP running buffer was monitored for 10 minutes. At the end of each cycle, the anti-FGFR3 antibody capture surface was regenerated using a 10 sec injection of 20 mM phosphoric acid. All binding kinetics experiments were performed at 25° C.
(§2) The specific SPR-Biacore sensorgrams were obtained by a double referencing procedure. The double referencing was performed by first subtracting the signal of each injection over a reference surface (anti-hFc) from the signal over the experimental surface (anti-hFc-captured anti-FGFR3 antibodies) thereby removing contributions from refractive index changes. In addition, running buffer injections were performed to allow subtraction of the signal changes resulting from the dissociation of captured antibodies from the coupled anti-hFc surface. Kinetic association (kₐ) and dissociation (kd) rate constants were determined by fitting the real-time sensorgrams to a 1:1 binding model using Scrubber v2.0c curve fitting software.

In test [3] the target is T2, human FGFR3c expressed with a C-terminal myc-myc-hexahistidine tag (hFGFR3c.mmH) (human, UniProt P22607 23-375).
T2 construct: monomeric; also called REGN3155; monomeric human FGFR3c
The test is described as follows: SPR (Biacore), captured mAb, 25 C. Here is the method:
as §1, §2
Background: Surface plasmon resonance follows binding to a sensor surface in real time, without labels.

The target of test [4] is T1, human FGFR3b expressed with a …. The test is described as follows: SPR (Biacore), captured mAb, 25 C. As to the method: as §1, §2
Test [5] has as its target T3, murine FGFR3b expressed with a C-terminal myc-myc-hexahistidine tag (mFGFR3b.mmH) (mouse).
T3 construct: monomeric; also called REGN3215; monomeric murine FGFR3b
T3 chain: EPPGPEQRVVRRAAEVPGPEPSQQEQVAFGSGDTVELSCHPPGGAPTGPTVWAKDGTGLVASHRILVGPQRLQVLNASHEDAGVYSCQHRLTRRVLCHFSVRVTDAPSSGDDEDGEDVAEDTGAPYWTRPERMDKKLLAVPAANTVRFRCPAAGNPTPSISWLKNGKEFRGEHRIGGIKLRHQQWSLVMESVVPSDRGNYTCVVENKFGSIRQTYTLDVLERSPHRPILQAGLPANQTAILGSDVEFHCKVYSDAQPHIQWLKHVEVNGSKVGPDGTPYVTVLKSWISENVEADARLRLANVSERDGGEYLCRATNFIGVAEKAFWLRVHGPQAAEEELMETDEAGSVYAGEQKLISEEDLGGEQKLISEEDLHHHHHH
In words: SPR (Biacore), captured mAb, 25 C. Here is the method: as §1, §2

In test [6] the target is T4, cynomolgus FGFR3b expressed with a C-terminal myc-myc-hexahistidine tag (mfFGFR3b.mmH) (cynomolgus).
T4 construct: The name states R357G; also called REGN3521; mf FGFR3b ecto (R357G) (E23-G377;R357G).mmH
T4 chain: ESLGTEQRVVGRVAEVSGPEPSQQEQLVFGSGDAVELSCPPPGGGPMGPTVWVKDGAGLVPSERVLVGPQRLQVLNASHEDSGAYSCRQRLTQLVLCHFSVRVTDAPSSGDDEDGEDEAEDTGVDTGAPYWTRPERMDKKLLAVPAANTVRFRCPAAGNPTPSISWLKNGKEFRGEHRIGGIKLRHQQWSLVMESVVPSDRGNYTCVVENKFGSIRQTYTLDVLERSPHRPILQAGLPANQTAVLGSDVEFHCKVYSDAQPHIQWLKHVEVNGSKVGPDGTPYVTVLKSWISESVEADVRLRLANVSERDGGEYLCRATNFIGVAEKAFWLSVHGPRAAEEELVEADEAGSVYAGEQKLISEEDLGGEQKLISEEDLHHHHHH
The test is described as follows: SPR (Biacore), captured mAb, 25 C. As to the method:
as §1, §2

In test [7] the target is T5, human fibroblast growth factor basic (hFGF basic) (human, UniProt P09038 144-288).
T5 construct: Bought; also called Biolegend 571508
In words: ELISA, receptor-Fc on plate-coated hFGF basic with heparin; fixed concentration said to be chosen near the EC50 of this binding. Background: In an ELISA, binding on a coated surface is turned into a signal by an enzyme label.

The target of test [8] is T6, human fibroblast growth factor acidic (hFGF acidic) (human, UniProt P05230 2-155, limits assumed).
T6 construct: Bought; coated on the plate with heparin; also called FGF1 acidic
In words: ELISA, receptor-Fc on plate-coated hFGF acidic with heparin; fixed concentration said to be chosen near the EC50 of this binding.

T6 sequence (P05230 2-155 limits assumed, form in doubt): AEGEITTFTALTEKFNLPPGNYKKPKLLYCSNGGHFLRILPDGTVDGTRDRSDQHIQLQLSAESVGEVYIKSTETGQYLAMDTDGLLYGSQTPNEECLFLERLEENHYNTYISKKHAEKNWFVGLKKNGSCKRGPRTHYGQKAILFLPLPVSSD
T5 sequence (P09038 144-288, form in doubt): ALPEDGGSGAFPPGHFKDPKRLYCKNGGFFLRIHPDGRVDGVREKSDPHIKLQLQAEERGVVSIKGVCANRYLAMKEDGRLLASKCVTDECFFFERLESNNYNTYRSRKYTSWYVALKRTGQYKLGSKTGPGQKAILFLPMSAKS

B1: H4H30093P2 (antibody, human IgG4 S228P, kappa, V domains shown)
VH: QVQLVESGGGLVKPGGSLRLSCAASGFTFNDYPMSWIRQAPGKGLEWVSYITSSSGSTIYYADSVKGRFTISRDNAKNSLYLQMNSLRAEDTAVYYCAREVVVATIGGYYGMDVWGQGTTVTVSS
VL: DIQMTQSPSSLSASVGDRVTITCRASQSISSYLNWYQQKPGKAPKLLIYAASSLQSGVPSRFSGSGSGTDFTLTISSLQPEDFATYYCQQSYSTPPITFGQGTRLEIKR
In the case of B1, the dissociation constant Kd in test [1] was determined as 9.06 nM. Besides, the t½ in test [2] worked out at 745 min; in test [3], 3.5 min; in test [4] it was 5.5 min; in test [5], 1.2 min.

B2: H4H30105P2 (antibody, human IgG4 S228P, kappa, V domains shown)
VH: EVQLVQSGAEVKKPGESLKISCKGSGYSFTSYWIAWVRQMPGKGLEWMGIIYPGDSDTRYSPSFQGQVTMSADKSIRIAYLQWSSLKASDTAMYYCARLDYSGSWFDYWGQGTLVTVSS
VL: not shown
With B2, the t½ in test [3] came to 1.8 min; in test [6] it was 1.4 min; in test [4], 2.3 min; in test [5], 9.5 min.

B3: hFGFR3c-hFc (Fc fusion, human, UniProt P22607 23-375, looked up)
chain: ESLGTEQRVVGRAAEVPGPEPGQQEQLVFGSGDAVELSCPPPGGGPMGPTVWVKDGTGLVPSERVLVGPQRLQVLNASHEDSGAYSCRQRLTQRVLCHFSVRVTDAPSSGDDEDGEDEAEDTGVDTGAPYWTRPERMDKKLLAVPAANTVRFRCPAAGNPTPSISWLKNGREFRGEHRIGGIKLRHQQWSLVMESVVPSDRGNYTCVVENKFGSIRQTYTLDVLERSPHRPILQAGLPANQTAVLGSDVEFHCKVYSDAQPHIQWLKHVEVNGSKVGPDGTPYVTVLKTAGANTTDKELEVLSLHNVTFEDAGEYTCLAGNSIGFSHHSAWLVVLPAEEELVEADEAGSVYAG
notes: range 23-375; Bought (R&D Systems); also called human FGFR3c extracellular domain with human IgG1 Fc; R&D Systems 766-FR-050; not shown: Fc portion of human IgG1 at the C-terminus, amino acids Pro100-Lys330
On to B3, for which the EC50 in test [7] is roughly 7 nM; in test [8], roughly 0.4 nM.

Regarding B4, the 50% effective concentration (EC50) in test [8] was roughly 4 nM.
